# In patent publication US20260001920A1:
# Assays:
# Assay in all cases: cell-based or functional assay
# [1] = molecular target: RpPpsR2 domain-modified body D4-D1-D2 (NLSx3-MS2-RpPpsR2 mutant) (bacteriophage MS2; Rhodopseudomonas palustris) (UniProt P03612)
# [2] = molecular target: RpPpsR2 domain-modified body D1-D2 (del C 15) (NLSx3-MS2-RpPpsR2 mutant) (bacteriophage MS2; Rhodopseudomonas palustris) (UniProt P03612)
# [3] = molecular target: RpPpsR2 mutant L110A (NLSx3-MS2-RpPpsR2 mutant) (bacteriophage MS2; Rhodopseudomonas palustris) (UniProt P03612)
# [4] = molecular target: RpPpsR2 mutant (with Q105T and L137E introduced) (NLSx3-MS2-RpPpsR2 mutant) (bacteriophage MS2; Rhodopseudomonas palustris) (UniProt P03612)
# [5] = molecular target: RpPpsR2 mutant (with Q105S and L137E introduced) (NLSx3-MS2-RpPpsR2 mutant) (bacteriophage MS2; Rhodopseudomonas palustris) (UniProt P03612)
"light-dependent activation (NIR against Dark), CPTS luminescence reporter in HEK293T cells [1] [times]","light-dependent activation (NIR against Dark), CPTS luminescence reporter in HEK293T cells [2] [times]","gene activation by light irradiation (NIR against Dark), CPTS luminescence reporter in HEK293T cells [3] [times]","light-dependent activation (ratio of NIR signal intensity to Dark signal intensity), CPTS luminescence reporter in HEK293T cells [4] [times]","light-dependent activation (ratio of NIR signal intensity to Dark signal intensity), CPTS luminescence reporter in HEK293T cells [5]",Substance
7.2,9.6,13.4,–,–,wild-type RpBphP1 (NLSx3-RpBphP1-p65-HSF1)
–,–,–,> 10,10 >,RpBphP1 mutant (with Q502A and E513A introduced) (NLSx3-RpBphP1 mutant-p65-HSF1)
